Assay [1] addresses T1, human wild-type RON (cell surface) (human, UniProt Q04912 25-1400). The assay can be described thus: cell-based or functional assay.
The target in assay [2] is T1, human wild-type RON (cell surface). The assay can be described thus: FACS, 10 ug/ml antibody, PC3 cells, 4 C. How it is done:
Binding to cell surface wild-type RON and delta 160 RON at 4° C. was determined for antibodies 07F01, 12B11, 17F06, 18H09, and 29B06, using FACS. Cells expressing wild-type RON (PC3), and cells expressing delta 160 RON (HT-29), were harvested using cell dissociation buffer (Invitrogen), washed twice with FACS buffer (0.5% BSA PBS) and treated with CytoQ Antibody diluent and FC receptor block (Innovex). Purified antibodies were diluted at a concentration of 10 μg/ml, in FACS buffer. Cells were incubated with 100 μl of antibody mix for one hour, washed with FACS buffer three times, and incubated for 45 minutes with goat anti-mouse PE conjugated antibody (Jackson Immunoresearch Laboratories). Cells were washed three times with FACS buffer, resuspended in 300 μl of FACS buffer and analyzed using a Beckman Coulter Cytomics FC 500 FACS instrument.

In assay [3] the target is T2, recombinant human RON-ECD/mFc fusion protein (human, UniProt Q04912 25-957).
T2 construct: extracellular domain; also called rhRON ECD/mFc; rhRon ECD/mFc; not shown: THXmFC: Thrombin/His tag/Factor Xa-AJ mouse IgG-Fc
The assay can be described thus: SPR, Ab captured on anti-mouse IgG, 25 C, AVG. How it is done: (§1) The binding affinities and kinetics of binding of antibodies 07F01, 29B06, 17F06, 18H09, and 12B11 to recombinant human RON-ECD/mFc fusion protein (rhRON ECD/mFc) and recombinant human RON SEMA and PSI domains (rhRON SEMA+PSI) (R&D Systems, Inc., Minneapolis, Minn.) were measured by surface plasmon resonance, using a Biacore T100 instrument (GE Healthcare, Piscataway, N.J.).
(§2) Rabbit anti-mouse IgGs (GE Healthcare) were immobilized on carboxymethylated dextran CM4 sensor chips (GE Healthcare) by amine coupling, according to a standard protocol. Analyses were performed at 25° C. and 37° C., using PBS containing 0.05% surfactant P20 as running buffer. The antibodies were captured in individual flow cells at a flow rate of 10 μl/min. Injection time was varied for each antibody to yield an Rmax between 30 and 60 RU. 250 μg/mL mouse Fc were injected at 30 μl/min for 120 seconds to block non-specific binding of antibodies to Fc portion of the protein when needed. Buffer, rhRon ECD/mFc or rhRON SEMA+PSI diluted in running buffer was injected sequentially over a reference surface (no antibody captured) and the active surface (antibody to be tested) for 300 seconds at 60 μl/minute. The dissociation phase was monitored for up to 3600 seconds. The surface was then regenerated with two 60-second injections of 10 mM Glycine-HCl, pH 1.7, at a flow rate of 60 μl/min. The rhRON ECD/mFc or rhRON SEMA+PSI concentration range tested was 0.625 nM to 20 nM.
Kinetic parameters were determined using the kinetic function of the BIAevaluation software (GE Healthcare) with double reference subtraction. Kinetic parameters for each antibody, kₐ (association rate constant), kd (dissociation rate constant) and KD (equilibrium dissociation constant) were determined.

Assay [4] concerns the target T3, recombinant human RON SEMA and PSI domains (human, UniProt Q04912 25-571).
T3 construct: domain: SEMA+PSI; Commercial protein (R&D Systems); also called rhRON SEMA+PSI; hRON SEMA+PSI
The assay can be described thus: SPR, Ab captured on anti-mouse IgG, 25 C, AVG. How it is done: as §1, §2

The target in assay [5] is T3, recombinant human RON SEMA and PSI …. The assay can be described thus: SPR, Ab captured on anti-mouse IgG, 37 C, AVG. How it is done: as §1, §2
Assay [6] shares this target. The assay can be described thus: ECL competition, MSP binding to coated hRON SEMA+PSI; competitor MSP; average n=3. How it is done:
(§3) The biochemical neutralization assay measures inhibition of MSP binding to hRON by antibodies in hybridoma supernatants, using electrochemiluminescence (ECL). MA2400 96-well high binding plates (Meso Scale Discovery) were coated with 25 μl of 0.42 μg/mL hRON SEMA+PSI (an N-terminal portion of the ECD of hRON; R&D Systems) in PBS for one hour at room temperature with agitation. The plates were washed four times with PBS+0.1% Tween-20 (PBST), and blocked with 150 μl of charcoal-stripped fetal bovine serum (FBS) (Gibco). The hybridoma supernatant were added and incubated for 45 minutes at room temperature. After incubation, 5 μl of MSP (3 μg/mL) in charcoal stripped FBS was added to each well, and incubated for 45 minutes. The plate was washed four times with PBST, and 25 μl of 1 μg/mL biotinylated anti-MSP antibody (R&D Systems) was added to the plates for one hour at room temperature with agitation. The plates were washed four times with PBST, and incubated with 25 μl of 1 μg/mL ST-streptavidin (Meso Scale Discovery) for one hour at room temperature with agitation. The plates were washed four times with PBST, and 150 μl read buffer (Meso Scale Discovery) was added to each well before the plates were analyzed on a Sector Imager 2400 (Meso Scale Discovery) instrument. Antibodies 07F01, 18H09 and 29B06 each blocked MSP binding to hRON SEMA+PSI in this neutralization assay.
(§4) Antibodies 07F01, 12B11, 17F06, 18H09, and 29B06 were tested for inhibition of MSP binding to hRON SEMA+PSI, as measured by electrochemiluminescence (ECL) assay as described in Example 3. The antibodies (concentration range: 0.006-10 μg/mL) were incubated for 45 minutes at room temperature.

For assay [7] the target is unchanged. The assay can be described thus: ECL competition assay: antibody titrated on plate-coated hRON SEMA+PSI; blocked ligand MSP, detected with biotinylated anti-MSP antibody. How it is done:
as §3, §4

Experimental findings from US20120027773A1 (AVEO PHARMACEUTICALS, published 2012) are described below.

B1: 07F01 (antibody, mouse IgG1, kappa, V domains shown)
VH: EVKLLESGGGLVQPGGSLKLSCAASGFDFSRHWMSWVRLAPGKGLEWIAEINPDSRTINYTPSLKEKFIISRDNAKNSLFLQMNRVRSEDTALYYCARRVRIHYYGAMDCWGQGTSVTVSS
VL: DIVLTQSQKIVSTSVGARVSVTCKASQNVGSSLVWYQQKPGQSPKTLIYSASFRYSGVPDRFTGSGSGTDFTLTISNVQSEDLADYFCQQYNNYPLTFGAGTKLELKR
notes: Murine hybridoma monoclonal, IgG1/kappa; also called mu07F01; antibody 07F01
As to B1, the “Mean IC50 (nM), inhibition of MSP-dependent ERK phosphorylation, T47D cells” value in assay [1] was found to be 0.07 nM. Besides, the “PC3 % cell surface binding” value in assay [2] is 99.3%. In addition, in assay [3], the Kd was found to be 230 pM, the koff worked out at 9.3e-05 s⁻¹ and the on-rate constant (kon) was determined as 400000 M⁻¹ s⁻¹. Also, in assay [4], the Kd amounted to 88 pM, the koff worked out at 0.00036 s⁻¹ and the association rate constant (kon) stood at 5.2e+06 M⁻¹ s⁻¹. Further, in assay [5], the Kd is 400 pM, the koff came to 0.0008 s⁻¹ and the kon is 2e+06 M⁻¹ s⁻¹. In assay [6], the IC50 amounted to 260 pM. In addition, the “IC50 (read off the curve)” value in assay [7] is around 300 pM.

B2: 29B06 (antibody, mouse IgG1, kappa)
heavy: EVQLQESGPSLVKPSQTLSLTCSVTGDSITSGYWNWIRKFPGNKLEYMGYISYSGKTYYNPSLKSRISITRDTSKNHYYLQLISVTAEDTATYYCARSKYDYAMDYWGQGTSVTVSSAKTTPPSVYPLAPGSAAQTNSMVTLGCLVKGYFPEPVTVTWNSGSLSSGVHTFPAVLQSDLYTLSSSVTVPSSTWPSETVTCNVAHPASSTKVDKKIVPRDCGCKPCICTVPEVSSVFIFPPKPKDVLTITLTPKVTCVVVDISKDDPEVQFSWFVDDVEVHTAQTQPREEQFNSTFRSVSELPIMHQDWLNGKEFKCRVNSAAFPAPIEKTISKTKGRPKAPQVYTIPPPKEQMAKDKVSLTCMITDFFPEDITVEWQWNGQPAENYKNTQPIMDTDGSYFVYSKLNVQKSNWEAGNTFTCSVLHEGLHNHHTEKSLSHSPGK
light: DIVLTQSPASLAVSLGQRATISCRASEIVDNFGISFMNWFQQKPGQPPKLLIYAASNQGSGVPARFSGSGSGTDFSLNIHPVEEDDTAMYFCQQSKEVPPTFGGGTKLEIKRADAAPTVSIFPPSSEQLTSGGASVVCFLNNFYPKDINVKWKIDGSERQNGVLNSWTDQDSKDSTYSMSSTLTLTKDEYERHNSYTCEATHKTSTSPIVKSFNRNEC
notes: Murine hybridoma monoclonal, IgG1/kappa; also called mu29B06; antibody 29B06
On to B2, for which, in assay [1], the “Mean IC50 (nM), inhibition of MSP-dependent ERK phosphorylation, T47D cells” value was determined as 0.44 nM. The “PC3 % cell surface binding” value in assay [2] was determined as 99.1%. In addition, in assay [3], the dissociation constant Kd stood at 650 pM, the dissociation rate constant (koff) is 0.00013 s⁻¹ and the on-rate constant (kon) worked out at 200000 M⁻¹ s⁻¹. Moreover, in assay [4], the Kd was 180 pM, the dissociation rate constant (koff) stood at 7e-05 s⁻¹ and the kon is 420000 M⁻¹ s⁻¹. In addition, in assay [5], the Kd stood at 1300 pM, the koff came out at 0.00069 s⁻¹ and the kon was found to be 520000 M⁻¹ s⁻¹. Further, in assay [6], the IC50 turned out to be 1110 pM. In assay [7], the “IC50 (read off the curve)” value was around 1000 pM.
